This is an account of results in publication doi:10.1101/2021.10.06.463398, “Disruption of nucleoid expanded conformation by toxic aberrant proteins synthesized in Escherichia coli” (bioRxiv, 2021).

The assay concerns the target T1, 6His-DnaK (E. coli molecular chaperone DnaK) (E. coli, UniProt P0A6Y8 1-638).
T1 construct: No tag removal is described; also called purified E. coli DnaK protein; source: E. coli, ASKA expression clone, purified (Ni-NTA agarose)
Briefly: MST; 20 nM fluorescein-labelled peptide with varying concentrations of DnaK; MST buffer (50 mM Tris pH 7.4, 150 mM NaCl, 10 mM MgCl2, 0.05% Tween-20, 0.05% bovine serum albumin); 1 h at 20°C; Monolith NT.115. The following applies: both partners purified.

The star is where a group is joined. FITC = O=C1OC2(c3ccc(O)cc3Oc3cc(O)ccc32)c2ccc(NC(=S)*)cc21

T1 sequence (P0A6Y8 whole entry): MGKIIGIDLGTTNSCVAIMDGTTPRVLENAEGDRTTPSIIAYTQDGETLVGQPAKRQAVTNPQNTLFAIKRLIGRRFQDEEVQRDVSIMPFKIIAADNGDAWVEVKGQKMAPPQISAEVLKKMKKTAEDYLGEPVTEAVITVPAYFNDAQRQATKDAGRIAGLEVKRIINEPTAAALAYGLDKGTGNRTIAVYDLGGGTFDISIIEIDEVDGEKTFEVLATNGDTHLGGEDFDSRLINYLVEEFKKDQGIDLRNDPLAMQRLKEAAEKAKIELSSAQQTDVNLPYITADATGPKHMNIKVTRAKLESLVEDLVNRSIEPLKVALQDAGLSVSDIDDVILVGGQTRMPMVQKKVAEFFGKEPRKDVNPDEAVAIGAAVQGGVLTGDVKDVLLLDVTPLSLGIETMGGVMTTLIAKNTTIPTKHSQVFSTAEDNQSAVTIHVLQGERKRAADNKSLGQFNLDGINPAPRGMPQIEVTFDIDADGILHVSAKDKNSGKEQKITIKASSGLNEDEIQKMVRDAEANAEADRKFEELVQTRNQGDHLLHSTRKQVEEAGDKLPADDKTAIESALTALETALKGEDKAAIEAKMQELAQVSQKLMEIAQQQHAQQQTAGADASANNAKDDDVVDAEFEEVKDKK

B1: KL peptide, FITC-TEKAKLVIKLLALGKTEQ-NH2 (KL decapeptide of ARF48 with flanking extensions) (peptide)
peptide: {FITC}-TEKAKLVIKLLALGKTEQ-NH2
notes: ARF48 is a 48-residue product of the +1 alternate reading frame of Arabidopsis thaliana cDNA At3G62370, not a natural protein), C-terminal extension KTEQ; The core decapeptide is not part of a natural protein: it is an alternate-reading-frame translation product; also called synthetic KL decapeptide; source: synthetic peptide (Peptide 2.0, Inc.)
Take B1: the binding result is on record as “binds”.

B2: NR peptide, FITC-TEKANRLLLTGKTEQ-NH2 (canonical DnaK peptide substrate NRLLLTG with flanking extensions) (peptide)
peptide: {FITC}-TEKANRLLLTGKTEQ-NH2
notes: N-terminal extension TEKA, canonical DnaK substrate heptapeptide NRLLLTG, C-terminal extension KTEQ; source: synthetic peptide (Peptide 2.0, Inc.)
For B2, the binding result is reported as “binds”.
